Columns and labels:
[1] = target: T1, 1x human ubiquitin (C-terminal His-tagged) (human, UniProt P0CG48 1-76); assay: ITC; 18 injections of 2 μl of 300 μM ubiquitin or phosphorylated ubiquitin into 200 μl of 30 μM GST-mRABGEF1 in the cell; 25°C; TBS buffer; single site binding model; conditions: both partners purified
T1 construct: human ubiquitin, the 76-residue mature product (primers from the ATG to the codons of the last two glycines); In pET21a(+) between BamHI and XhoI; also called 1x ubiquitin; 1 × Ub; source: E. coli BL21-CodonPlus(DE3)-RIL, purified (Ni-NTA; for ITC also Superdex 75)

[2] = target: T2, S65 phosphorylated ubiquitin produced in bacterial cells (human, UniProt P0CG48 1-76, S65 phosphorylated); assay: as above; conditions: both partners purified
T2 construct: human ubiquitin, the 76-residue mature product, from pET21a(+)/1xUb; Same construct as m13, phosphorylated in the bacteria by co-expressed membrane-anchored TcPINK1; also called monomeric phosphorylated ubiquitin; source: Superdex 75)

- Kd [1]: 2.2 µM
- Kd [2]: 5.6 µM
B1: GST-tagged mouse RABGEF1 (WT) 1-74aa (domain or fragment)
chain: not shown
notes: Expressed with 50 μM ZnCl2 in the medium; also called GST-mRABGEF1 (WT); GST-mRABGEF1 WT; source: E. coli BL21-CodonPlus(DE3)-RIL, purified (glutathione-Sepharose 4B; for ITC also Superdex 75); not shown: GST, N-terminal, kept

Source: article PMC5780041, “Endosomal Rab cycles regulate Parkin-mediated mitophagy” (eLife, 2018)
